Measured values as given in patent US20040265808A1, “Genes involved in osteogenesis, and methods of use” (priority 2001, published 2004).

Tests used:
[1] = system: pluripotent cells C3H10T1/2, ST2 and C2C12; test: Wnt-frizzled pathway and osteoblast differentiation, alkaline phosphatase measurement in pluripotent cells; assay type: cell-based, mouse; conditions: C3H10T1/2 cells
Description: FIGS. 1 to 7 represents the relationship between members of the Wnt-frizzled family, with bone formation, by measurement of alkaline phosphatase (ALP).
The inventors have also tested the capacity of Fz1 to interact with Wnt proteins and thus affect osteoblast differentiation. Overexpression of Fz1 decreased the activity of Wnt1, Wnt2 and Wnt3a in pluripotent cells C3H10T1/2 as determined by the alkaline phosphatase measurement (FIG. 4). However the expression of Fz3 or Fz4 increased the activity of Wnt proteins in the differentiation process (FIG. 6). […] This indicate that Frizzled may negatively or positively cooperate with their ligand proteins, Wnt, in these bone-related cells.
(§1) Mouse cell lines representing different stages of osteoblastic differentiation, C2C12, C2H10T1/2, ST2 and MC3T3-E1, were grown in the presence of agents capable of the induction of osteoblastic differentiation in vitro such as BMP2 and Sonic Hedgehog or in the presence of TGF beta (negative control) or with serum alone. Primary cells derived from mouse calvaria were also cultured for 0, 2, 7 14 and 21 days and RNA prepared for each time point. For example, C3H10T ½ and C2C12 can be obtained from the ATCC (Manassas, Va., USA) under the collection numbers CCL-226 and CRL-1772, respectively.

C3H10T1/2 cells = test: Transient over-expression of candidate genes, cooperation with BMP2 by measurement of alkaline phosphatase; assay type: cell-based, mouse; design: key: +: positive or negative cooperation with BMP2; −: positive or negative cooperation with BMP2; conditions: for Validation in vitro (coop over BMP2) C3H10T1/2: alkaline phosphatase; for Validation in C2H10T1/2 (coop over BMP2): alkaline phosphatase at 48 hours
Procedure: as §1
The candidates genes are cloned in expression vectors and their ability to express a protein of the expected size verified by COS cells transient transfection. The genes are then transfected in C3H10T1/2 cells and/or C2C12 cells (transient over-expression) and positive or negative cooperation with BMP2 is evaluated by the measurement of alkaline phosphatase (enzymatic assay and TaqMan) at 48 hours. Controls of positive cooperation, recombinant Sonic Hedgehog, or negative cooperation, recombinant Noggin, are included in each test.

Row | Molecule | effect on BMP-2 [1] | Validation in vitro (coop over BMP2) C3H10T1/2 (C3H10T1/2 cells) | Validation in C2H10T1/2 (coop over BMP2) (C3H10T1/2 cells)
1 | TCF3: TCF protein, transcription factor of the Wnt pathway | inhibitors |  | 
2 | 24 (nucleic acid, listed as Mus musculus) CGATCGATATGGCCAGCCCGCTGCGCTCCTTGCTGTTCCTGCTGGCCGTCCTGGCCGTGGCCTGGGCGGCGACCCCAAAACAAGGCCCGCGAATGTTGGGAGCCCCGGAGGAGGCAGATGCCAATGAGGAAGGCGTGCGGCGAGCGTTGGACTTCGCTGTGAGCGAGTACAACAAGGGCAGCAACGATGCGTACCACAGCCGCGCCATACAGGTGGTGAGAGCTCGTAAGCAGCTCGTGGCTGGAGTGAACTATTTTTTGGATGTGGAGATGGGCCGAACTACATGTACCAAGTCCCAGACAAATTTGACTGACTGTCCTTTCCATGACCAGCCCCATCTGATGAGGAAGGCACTCTGCTCCTTCCAGATCTACAGCGTGCCCTGGAAAGGCACACACTCCCTGACAAAATTCAGCTGCAAAAATGCCGCGGCCGCTT |  | − | 
3 | 7 (nucleic acid, listed as Mus musculus) AATCTAGAATGAAGTCCTGCGGCCTTTTACCTTTCACGGTGCTCCTTGCTCTGGGGATCCTGGCACCCTGGACTGTGGAAGGAGGCAAAAATGATGCTATCAAAATCGGAGCCTGCCCTGCTAAAAAGCCTGCCCAGTGCCTTAAGCTTGAGAAGCCACAATGCCGTACTGACTGGGAGTGCCCGGGAAAGCAGAGGTGCTGCCAAGATGCTTGCGGTTCCAAGTGCGTGAATCCTGTTCCCATTCGCAAACCAGTGTGGAGGAAGCCTGGGAGGTGCGTCAAAACTCAGGCAAGATGTATGATGCTTAACCCTCCCAATGTCTGCCAGAGGGACGGGCAGTGTGACGGCAAATACAAGTGCTGTGAGGGTATATGTGGGAAAGTCTGCCTGCCCCCGATGACTAGTAA |  | + | + coop over BMP2
4 | 67 (nucleic acid, listed as Mus musculus) AATCTAGAATGGCGTTGACTGCGGATGTGGCAGGACCAGCACCTTGGGGCTTCCGAATTAGCGGGGGCAGAGATTTCCACACACCCATCATTGTGACCAAGGTCACAGAGCGGGGCAAGGCTGAAGCAGCTGATCTCCGGCCTGGCGACATCATTGTGGCCATCAATGGACAGAGTGCAGAGAACATGCTACACGCGGAGGCCCAAAGCAAGATCCGACAGAGCGCCTCACCCCTAAGACTGCAGCTGGACCGGTCCCAAACAGCCTCTCCTGGGCAGACCAATGGGGAGGGCTCCTTGGAAGTGCTGGCAACCAGATTCCAGGGCTCCCTGAGGACACACCGTGACAGCCAGTCTTCCCAGAGGTCTGCCTGCTTCAGCCCAGTCTCTCTCAGCCCCAGGCCTTGCAGCCCCTTCTCCACCCCACCCCCTACCAGCCCAGTTGCCCTTTCTAAAGAGGATATGATTGGCTGTAGTTTCCAGAGTCTGACACACTCTCCAGGCCTTGCTGCTGCTCACCACTTGACCTACCCTGGCCACCCCACCAGCCAACAGGCCGGCCACAGCAGCCCAAGCGACTCCGCAGTGAGGGTGCTGCTCCATTCCCCAGGACGGCCCTCCAGCCCTAGGTTCAGCAGTTTGGATCTGGAGGAAGACTCAGAGGTGTTCAAGATGCTGCAGGAGAACCGCCAGGGACGGGCCGCCCCAAGGCAGTCCAGCTCTTTTCGACTCTTACAGGAAGCCTTGGAGGCTGAGGAGAGAGGTGGCACACCTGCCTTTGTGCCCAGCTCGCTGAGCTCCCAGGCTTCCTTGCCCACCTCCAGGGCCTTGGCCACTCCACCCAAGCTCCACACCTGTGAGAAATGCAGCGTCAACATCTCGAACCAGGCGGTCCGCATCCAGGAGGGGAGGTACCGACACCCTGGCTGCTACACTTGCGCAGACTGTGGGCTGAACCTGAAGATGCGCGGCCACTTCTGGGTGGGCAATGAGTTGTACTGCGAGAAGCATGCCCGCCAGCGCTACTCTATGCCTGGAACTCTCAACTCTCGAGCCACTAGTAA |  | − | 
5 | 65 (nucleic acid, listed as Mus musculus) AATCTAGAATGGAGGCCAGAGCTCAGAGTGGCAACGGGTCGCAGCCTTTGCTGCAGACAGCCCATGACAGTGGCAGGCAGCGCGGGGAGCCGGATCCAAGAGATGCCCTTACCCAGCAGGTACACGTCTTGTCTCTGGATCAGATCAGAGCCATCCGAAACACCAATGAGTACACAGAGGGCCCTACTGTGGTCCCAAGACCTGGGCTCAAGCCTGCTCCTCGCCCCTCCACTCAGCACAAACATGAAAGACTCCACGGTCTGCCGGAGCACCGCCAGCCTCCCAGGCTCCAGCCCTCGCAGGTCCATTCTTCACGGGCCCCTCTGTCCAGGTCCATCAGCACTGTCAGCTCAGGGTCTCGGAGCAGTACAAGGACAAGTACCAGCAGCAGCTCCTCGGAACAGAGACTGTTAGGACCGTCCTTCTCCCACGGGCCTGCTGCTGCTGATGGAATAATCCGAGTGCAGCCTAAATCGGAGCTCAAGCCAGGTGACGTTAAGCCACTGAGCAAGGATGATTTGGGTCTGCATGCCTACAGGTGTGAGGACTGCGGCAAGTGCAAGTGTAAGGAGTGCACCTACCCGAGGCCCCTGCCGTCGGACTGGATCTGTGACAAGCAGTGCCTCTGCTCAGCCCAGAACGTCATTGACTATGGGACTTGTGTGTGCTGTGTGAAAGGTCTCTTCTATCACTGCTCCAATGACGATGAGGACAATTGTGCTGACAACCCGTGCTCTTGCAGCCAGTCCCATTGTTGTACGCGATGGTCAGCGATGGGAGTCATGTCTCTCTTTTTGCCTTGTTTATGGTGTTACCTTCCAGCCAAGGGTTGCCTTAAATTGTGCCAGGGGTGTTATGACCGAGTGAACAGGCCGGGTTGTCGTTGTAAAAACTCAAATACAGTTTGCTGCAAAGTTCCCACTGTCCCCCCTAGGAACTTTGAAAAACCAACAACTAGTAAAAGGGCGAATTCCAGCAC |  | + | + coop over BMP2
6 | 46 (nucleic acid, listed as Mus musculus) AATCTAGAATGGTGTCCACTAGCATCCCGGAGGTTAAAGCTCTCCGCAGCTCAGTCTCTGACTATGGGAACTATGATATCATAGTCCGGCATTACAACTACACAGGCAAGTTGAACATCGGGGCGGAGAAGGACCATGGCATTAAACTGACTTCAGTGGTGTTCATTCTCATCTGCTGCTTCATCATCCTAGAGAATATATTTGTCTTGCTAACTATTTGGAAAACCAAGAAGTTCCACCGGCCCATGTACTATTTCATAGGCAACCTAGCCCTCTCGGACCTATTAGCAGGCGTGGCTTACACAGCTAACCTGCTGTTGTCTGGGGCCACCACTTACAAGCTCACACCTGCCCAGTGGTTTCTGCGGGAAGGGAGTATGTTTGTGGCTCTCTCTGCATCAGTCTTCAGCCTCCTTGCCATCGCCATTGAGCGCTACATCACCATGCTGAAGATGAAACTACACAACGGGAGCAACAGCTCGCGCTCCTTTCTGCTGATCAGCGCCTGCTGGGTCATCTCCCTCATCCTGGGGGGCCTGCCCATCATGGGCTGGAACTGCATCAGCTCGCTGTCTAGCTGCTCCACCGTGCTCCCGCTCTACCACAAGCACTATATTCTCTTCTGCACCACCGTCTTCACTCTGCTCCTGCTTTCCATCGTCATCCTCTACTGCAGGATCTACTCCTTGGTCAGGACTCGAAGCCGCCGCCTGACCTTCCGCAAGAACATCTCCAAGGCCAGTCGCAGTTCTGAGAAGTCTCTGGCCTTGCTGAAGACGGTGATCATTGTCTTGAGTGTCTTCATTGCCTGCTGGGCCCCTCTCTTCATCCTACTACTGTTAGATGTGGGCTGCAAGGCGAAGACCTGTGACATCCTGTACAAAGCAGAGTACTTCCTGGTTCTGGCTGTGCTGAACTCAGGTACCAACCCCATCATCTACACTCTGACCAACAAGGAGATGCGCCGGGCCTTCATCCGGATCGTATCTTGTTGCAAATGCCCCAACGGAGACTCTGCTGGCAAATTCAAGAGGCCCATCATCCCAGGCATGGAATTTAGCCGCAGCAAATCAGACAACTCCTCTCACCCCCAGAAGGACGATGGGGACAACCCAGAGACCATTATGTCGTCTGGAAACGTCAATTCTTCTTCCACTAGTAA |  | + | + coop over BMP2
7 | 48 (nucleic acid, listed as Mus musculus) AATCTAGAATGGCAGCTGCCTCTACTTCCAGCCCTGTAATTTCACAGCCCCAGTTCACAGCCATGAACGAACAACAGTGCTTCTACAATGAGTCTATCGCCTTCTTTTATAACCGGAGTGGGAAATATCTAGCCACAGAATGGAACACAGTGAGCAAGCTGGTGATGGGACTGGGCATCACTGTTTGCGTGTTCATCATGTTGGCCAATCTCCTGGTCATGGTGGCAATCTACGTCAACCGCCGCTTCCATTTCCCTATTTATTACTTGATGGCCAACCTGGCTGCTGCAGACTTCTTCGCTGGATTGGCCTACTTCTACCTGATGTTCAATACAGGACCTAATACCCGGAGACTGACTGTTAGCACGTGGCTCCTCCGGCAGGGCCTCATTGACACCAGCCTGACAGCTTCTGTGGCCAACCTGCTGGCTATTGCTATCGAGAGGCACATCACGGTTTTCCGCATGCAGCTCCATACACGAATGAGCAACCGGCGCGTGGTGGTGGTGATTGTAGTCATCTGGACTATGGCCATTGTGATGGGTGCTATACCCAGTGTGGGCTGGAACTGCATCTGTGATATCGATCACTGTTCCAACATGGCACCCCTCTACAGTGACTCCTACTTAGTCTTCTGGGCCATTTTCAACCTGGTGACCTTTGTGGTCATGGTGGTTCTCTACGCTCACATCTTTGGCTATGTTCGCCAGAGGACTATGAGGATGTCTCGGCATAGTTCTGGACCCAGGAGGAATCGGGACACCATGATGAGCCTTCTGAAGACTGTGGTCATTGTGCTTGGTGCCTTTATTGTCTGCTGGACTCCGGGATTGGTCTTGTTATTGCTGGATGTGTGCTGCCCGCAGTGCGATGTCCTGGCCTATGAGAAGTTCTTCCTCCTCCTGGCCGAGTTCAACTCTGCTATGAACCCCATCATCTACTCCTACCGCGACAAAGAGATGAGCGCCACCTTCAGGCAGATCCTGTGTTGCCAGCGCAACGAGAACCCTAATGGCCCCACGGAAGGCTCTGACCGCTCTGCCTCCTCCCTCAACCACACCATTCTGGCTGGAGTTCACAGCAACGACCACTCTGTGGTTACTAGTAA |  | + | + coop over BMP2
